Tests used:
[1] = biological target: T1, human CD3 on CD3+ Jurkat cells (human, UniProt P07766 23-207); assay: flow cytometry, 100 nM IgG on CD3+ Jurkat cells, pH 7.4
T1 construct: whole, on cells; Native CD3 complex on cells; the other CD3 chains are not specified for this assay; also called Human CD3+ Jurkat
Protocol: (§1) Specificity of the anti-CD3 antibodies for human CD3+ Jurkat cells compared to CHO-S cells at pH 6.0 and 7.4 was determined using a FACS cell binding assay. Briefly, CD3+ human Jurkat cells and CHO-S cells were thawed and washed with cold PBSF buffer, pH 7.4 (PBS+0.1% BSA, pH 7.4). About 200,000 cells were aliquoted per well of a 96-well plate and pelleted by centrifugation (5 minutes at 500×g). The cells were washed with either PBSF pH 7.4 or PBSF pH 6.0 (PBS+0.1% BSA, pH 6.0), and then resuspended in 100 ul in either PBSF pH 7.4 or PBSF pH 6.0 with IgG antibody produced in yeast (100 nM). The mixture (cells+antibody) was incubated for 20 minutes on ice, then washed twice with either PBSF pH 7.4 or PBSF pH 6.0. Cells were resuspended in 50 ul of propidium iodide (1:500 dilution) and anti-human IgG-RPE (1:100 dilution) prepared in either PBSF pH 7.4 or PBSF pH 6.0, then incubated for 20 minutes on ice in the dark before cells were washed twice with either PBSF pH 7.4 or PBSF pH 6.0. Binding was analyzed on FACS Canto II.
(§2) Cell binding assays. CD3+ human Jurkat cells (ATCC) and CHO-S cells (Invitrogen/ThermoFisher) were thawed and washed with cold PBSF buffer, pH 7.4 (PBS+0.1% BSA, pH 7.4). About 200,000 cells were aliquoted per well of a 96-well plate (FACS Assay Plate VWR BD 353263) and pelleted by centrifugation (5 minutes at 500×g). The cells were washed with either PBSF pH 7.4 or PBSF pH 6.0 (PBS+0.1% BSA, pH 6.0), and then resuspended in 100 ul in either PBSF pH 7.4 or PBSF pH 6.0 with IgG antibody (100 nM) produced in yeast as described above. The mixture (cells+antibody) was incubated for 20 minutes on ice, then washed twice with either PBSF pH 7.4 or PBSF pH 6.0. Cells were resuspended in 50 ul of propidium iodide (Roche; 1:500 dilution) and anti-human IgG-RPE (Southern Biotech; 1:100 dilution) prepared in either PBSF pH 7.4 or PBSF pH 6.0, then incubated for 20 minutes on ice in the dark before cells were washed twice with either PBSF pH 7.4 or PBSF pH 6.0. Binding was analyzed on FACS Canto II.

[2] = biological target: T1, human CD3 on CD3+ Jurkat cells; assay: flow cytometry, 100 nM IgG on CD3+ Jurkat cells, pH 6.0
Protocol: as §1, §2

[3] = biological target: T1, human CD3 on CD3+ Jurkat cells; assay: flow cytometry on CD3+ Jurkat cells, ratio of MFI at pH 6.0 to pH 7.4
Protocol: as §1, §2

T1 sequence (P07766 23-207): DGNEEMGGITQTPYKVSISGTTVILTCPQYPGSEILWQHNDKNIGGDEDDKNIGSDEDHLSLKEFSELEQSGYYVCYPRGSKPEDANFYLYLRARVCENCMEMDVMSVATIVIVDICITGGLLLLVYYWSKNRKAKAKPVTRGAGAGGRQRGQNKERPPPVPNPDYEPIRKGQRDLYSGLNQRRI

| Binder | MFI pH 7.4 [1] | MFI pH 6.0 [2] | MFI pH 6.0/MFI pH 7.4 [3] |
| --- | --- | --- | --- |
| SAD10318_P02_C04 (ADI-48592) (antibody, V domains shown, IgG; also called Ab125) VH: QVQLVQSGAEVKEPGASVKVSCKASGFNIKDYYMHWVRQAPGQRLEWMGWIDLENANTIYDAKFQGRVTITRDTSASTAYMELSSLRSEDTAVYYCARDAHHRYFYDVWGQGTLVTVSS VL: DIVMTQSPDSLAVSLGERATINCKSSQSLLNAHTGHNYLAWYQQKPGQPPKLLIYWASTRESGVPDRFSGSGSGTDFTLTISSLQAEDVAVYYCKQSYSRRTFGGGTKVEIK | 2990 MFI | 5810 MFI | 1.9 |
| SAD10318_P02_D05 (ADI-48598) (antibody, V domains shown, IgG; also called Ab181) VH: QVQLVQSGAEVKKPGASVKVSCKASGFNIKDYYMHWVRQAPGQRLEWMGWIDLENANTIYDAKFQGRVTITRDTSASTAYMELSSLRSEDTAVYYCARDHYGHYFYDVWGQGTLVTVSS VL: DIVMTQSPDSLAVSLGERATINCKSSQSLLNARTGKNHLAWYQQKPGQPPKLLIYWASTRESGVPDRFSGSGSGTDFTLTISSLQAEDVAVYYCKQSYHHRTFGGGTKVEIK | 33 MFI | 279 MFI | 8.6 |
| SAD10318_P02_G04 (ADI-48593) (antibody, V domains shown, IgG; also called Ab158) VH: QVQLVQSGAEVKKPGASVKVSCKASGFNIKDYYMHWVRQAPGQRLEWMGWIDLENANTIYDAKFQGRVTITRDTSASTAYMELSSLRSEDTAVYYCARDAYGHYHYDVWGQGTLVTVSS VL: DIVMTQSPDSLAVSLGERATINCKSSQSLLHARTGKNYLAWYQQKPGQPPKLLIYWASTRESGVPDRFSGSGSGTDFTLTISSLQAEDVAVYYCKQSYHHRTFGGGTKVEIK | 96 MFI | 3780 MFI | 39.4 |
| SAD10318_P02_G06 (ADI-48600) (antibody, V domains shown, IgG; also called Ab189) VH: QVQLVQSGAEVKKPGASVKVSCKASGFNIKDYYMHWVRQAPGQRLEWMGWIDLENANTIYDAKFQGRVTITRDTSASTAYMELSSLRSEDTAVYYCAHDAYGHYFYDVWGQGTLVTVSS VL: DIVMTQSPDSLAVSLGERATINCKSSQSLLHTRTGKNYLAWYQQKPGQPPKLLIYWASTRESGVPDRFSGSGSGTDFTLTISSLQAEDVAVYYCKQSYSRRTFGGGTKVEIK | 1340 MFI | 2900 MFI | 2.2 |
| SAD10318_P02_H04 (ADI-48594) (antibody, V domains shown, IgG; also called Ab169) VH: QVQLVQSGAEVKKPGASVKVSCKASGFNIKDYYMHWVRQAPGQRLEWMGWIDLENANTIYDAKFQGRVTITRDTSASTAYMELSSLRSEDTAVYYCARDAYHRYFYDHWGQGTLVTVSS VL: DIVMTQSPDSLAVSLGERATINCKSSQSLLHARTGHNYLAWYQQKPGQPPKLLIYWASTRESGVPDRFSGSGSGTDFTLTISSLQAEDVAVYYCKQSYSRRTFGGGTKVEIK | 1320 MFI | 4260 MFI | 3.2 |
| SAD10318_P02_H05 (ADI-48599) (antibody, V domains shown, IgG; also called Ab185) VH: QVQLVQSGAEVKKPGASVKVSCKASGFNIKDYYMHWVRQAPGQRLEWMGWIDLENANTIYDAKFQGRVTITRDTSASTAYMELSSLRSEDTAVYYCARDAYGHHFYDVWGQGTLVTVSS VL: not shown | 583 MFI | 1320 MFI | 2.3 |
| SAD10318_P03_A09 (ADI-48608) (antibody, V domains shown, IgG; also called Ab203) VH: QVQLVQSGAEVKKPGASVKVSCKASGFNIKDYYMHWVRQAPGQRLEWMGWIDLENANTIYDAKFQGRVTITRDTSASTAYMELSSLRSEDTAVYYCARDHYGRYFYDHWGQGTLVTVSS VL: DIVMTQSPDSLAVSLGERATINCKSSQSLLNARTGHNHLAWYQQKPGQPPKLLIYWASTRESGVPDRFSGSGSGTDFTLTISSLQAEDVAVYYCKQSYHHRTFGGGTKVEIK | 45 MFI | 203 MFI | 4.5 |
| SAD10318_P03_C08 (ADI-48603) (antibody, V domains shown, IgG; also called Ab197) VH: QVQLVQSGAEVKKPGASVKVSCKASGFNIKDYYMHWVRQAPGQRLEWMGWIDLENANTIYDAKFQGRVTITRDTSASTAYMELSSLRSEDTAVYYCARDHYGHYFYDVWGQGTLVTVSS VL: DIVMTQSPDSLAVSLGERATINCKSSQSLLHARTGKNHLAWYQQKPGQPPKLLIYWASTRESGVPDRFSGSGSGTDFTLTISSLQAEDVAVYYCKQSHSHRTFGGGTKVEIK | 51 MFI | 177 MFI | 3.5 |

More lines, now with the values ahead:

| MFI pH 7.4 [1] | MFI pH 6.0 [2] | MFI pH 6.0/MFI pH 7.4 [3] | Binder |
| --- | --- | --- | --- |
| 37 MFI | 346 MFI | 9.3 | SAD10318_P03_C09 (ADI-48609) (antibody, V domains shown, IgG; also called Ab205) VH: QVQLVQSGAEVKKPGASVKVSCKASGFNIKDYYMHWVRQAPGQRLEWMGWIDLENANTIYDAKFQGRVTITRDTSASTAYMELSSLRSEDTAVYYCARDAYHRYFYDHWGQGTLVTVSS VL: DIVMTQSPDSLAVSLGERATINCKSSQSLLNAHTGKNHLAWYQQKPGQPPKLLIYWASTRESGVPDRFSGSGSGTDFTLTISSLQAEDVAVYYCKQSYHHRTFGGGTKVEIK |
| 43 MFI | 199 MFI | 4.7 | SAD10318_P03_D08 (ADI-48604) (antibody, V domains shown, IgG; also called Ab198) VH: QVQLVQSGAEVKKPGASVKVSCKASGFNIKDYYMHWVRQAPGQRLEWMGWIDLENANTIYDAKFQGRVTITRDTAASTAYMELSSLRSEDTAVYYCARDHYHRYFYDHWGQGTLVTVSS VL: DIVMTQSPDSLAVSLGERATINCKSSQSLLNAHTGKNHLAWYQQKPGQPPKLLIYWASTRESGVPDRFSGSGSGTDFTLTISSLQAEDVAVYYCKQSYSRRTFGGGTKVEIK |
| 72 MFI | 361 MFI | 5 | SAD10318_P03_D09 (ADI-48610) (antibody, V domains shown, IgG; also called Ab206) VH: QVQLVQSGAEVKKPGASVKVSCKASGFNIKDYHMHWVRQAPGQRLEWMGWIDLENANTIYDAKFQGRVTITRDTSASTAYMELSSLRSEDTAVYYCARDAHHRYFYDVWGQGTLVTVSS VL: DIVMTQSPDSLAVSLGERATINCKSSQSLLNAHTGKNHLAWYQQKPGQPPKLLIYWASTRESGVPDRFSGSGSGTDFTLTISSLQAEDVAVYYCKQSHSHRTFGGGTKVEIK |
| 52 MFI | 1080 MFI | 20.7 | SAD10318_P03_E07 (ADI-48601) (antibody, V domains shown, IgG; also called Ab191) VH: QVQLVQSGAEVKKPGASVKVSCKASGFNIKDYYMHWVRQAPGQRLEWMGWIDLENANTIYDAKFQGRVTITRDTSASTAYMELSSLRSEDTAVYYCARDHYHRYFYDVWGQGTLVTVSS VL: DIVMTQSPDSLAVSLGERATINCKSSQSLLNAHTGKNYLAWYQQKPGQPPKLLIYWASTRESGVPDRFSGSGSGTDFTLTISSLQAEDVAVYYCHQSHSRRTFGGGTKVEIK |
| 55 MFI | 282 MFI | 5.2 | SAD10318_P03_E08 (ADI-48605) (antibody, V domains shown, IgG; also called Ab199) VH: QVQLVQSGAEVKKPGASVKVSCKASGFNIKDYYMHWVRQAPGQRLEWMGWIDLENANTIYDAKFQGRVTITRDTSASTAYMELSSLRSEDTAVYYCARDHYHRYFYDVWGQGTLVTVSS VL: DIVMTQSPDSLAVSLGERATINCKSSQSLLNAHTGKNHLAWYQQKPGQPPKLLIYWASTRESGVPDRFSGSGSGTDFTLTISSLQAEDVAVYYCKQSYHRRHFGGGTKVEIK |
| 34 MFI | 202 MFI | 5.9 | SAD10318_P03_F07 (ADI-48602) (antibody, V domains shown, IgG; also called Ab192) VH: QVQLVQSGAEVKKPGASVKVSCKASGFNIKDYYMHWVRQAPGQRLEWMGWIDLENANTIYDAKFQGRVTITRDTSASTAYMELSSLRSEDTAVYYCARDAHGRYHYDVWGQGTLVTVSS VL: DIVMTQSPDCLAVSLGERATINCKSSQSLLNARTGHNYLAWYQQKPGQPPKLLIYWASTRESGVPDRFSGSGSGTDFTLTISSLQAEDVAVYYCKQSHSHRTFGGGTKVEIK |
| 76 MFI | 89 MFI | 1.2 | SAD10318_P03_F08 (ADI-48606) (antibody, V domains shown, IgG; also called Ab200) VH: QVQLVQSGAEVKKPGASVKVSCKASGFNIKDYYMHWVRQAPGQRLEWMGWIDLENANTIYDAKFQGRVTITRDTSASTAYMELSSLRSEDTAVYYCARDHYHRYFYDVWGQGTLVTVSS VL: DIVMTQSPDSLAVSLGERATINCKSSQSLLNAHTGKNHLAWYQQKPGQPPKLLIYWASTRESGVPDRFSGSGSGTDFTLTISSLQAEDVAVYYCKQSYSRRHFGGGTKVEIK |
